Data reported in patent US11560546B2, “Methods for neural conversion of human embryonic stem cells” (MEMORIAL SLOAN KETTERING CANCER CENTER, priority 2009, dated 2023).
“Also recorded” adds a separate entry of the source.

B1: FGF8: caudalizing factor (R&D 50 ng/ml) (protein, UniProt P55075 23-233, looked up)
Fibroblast growth factor 8: QEGPGRGPALGRELASLFRAGREPQGVSQQHVREQSLVTDQLSRRLIRTYQLYSRTSGKHVQVLANKRINAMAEDGDPFAKLIVETDTFGSRVRVRGAETGLYICMNKKGKLIAKSNGKGKDCVFTEIVLENNYTALQNAKYEGWYMAFTRKGRPRKGSKTRQHQREVHFMKRLPRGHHTTEQSLRFEFLNYPPFTRSLRGSQRTWAPEPR
B2: Wnt-1: caudalizing factor (Peprotech 50 ng/ml) (protein, UniProt P04628 28-370, looked up)
Proto-oncogene Wnt-1: ANSSGRWWGIVNVASSTNLLTDSKSLQLVLEPSLQLLSRKQRRLIRQNPGILHSVSGGLQSAVRECKWQFRNRRWNCPTAPGPHLFGKIVNRGCRETAFIFAITSAGVTHSVARSCSEGSIESCTCDYRRRGPGGPDWHWGGCSDNIDFGRLFGREFVDSGEKGRDLRFLMNLHNNEAGRTTVFSEMRQECKCHGMSGSCTVRTCWMRLPTLRAVGDVLRDRFDGASRVLYGNRGSNRASRAELLRLEPEDPAHKPPSPHDLVYFEKSPNFCTYSGRLGTAGTAGRACNSSSPALDGCELLCCGRGHRTRTQRVTERCNCTFHWCCHVSCRNCTHTRVLHECL
B3: Wnt3A: WNT protein added to neural rosette stage cells (protein, UniProt P56704 19-352, looked up)
Protein Wnt-3a: SYPIWWSLAVGPQYSSLGSQPILCASIPGLVPKQLRFCRNYVEIMPSVAEGIKIGIQECQHQFRGRRWNCTTVHDSLAIFGPVLDKATRESAFVHAIASAGVAFAVTRSCAEGTAAICGCSSRHQGSPGKGWKWGGCSEDIEFGGMVSREFADARENRPDARSAMNRHNNEAGRQAIASHMHLKCKCHGLSGSCEVKTCWWSQPDFRAIGDFLKDKYDSASEMVVEKHRESRGWVETLRPRYTYFKVPTERDLVYYEASPNFCEPNPETGSFGTRDRTCNVSSHGIDGCDLLCCGRGHNARAERRREKCRCVFHWCCYVSCQECTRVYDVHTCK

Experiments:
Assay type in all cases: cell-based, human
[1] = test system: rosette-stage neural cells; assay: Floor plate induction in stromal-feeder (MS5) derived / rosette-stage neural cells; settings: added to neural rosette stage cells
Method: (§1) For MS5 induction, established methods previously reported were used (Perrier et al., 2004). Feeder free neural induction was carried out as previously described (Chambers et al., 2009). Briefly, hESCs cultures were disaggregated using accutase for 20 minutes, washed using hESCs media and pre-plated on gelatin for 1 hour at 37° C. in the presence of ROCK inhibitor to remove MEFs. The nonadherent hESCs were washed and plated on matrigel at a density of 20,000 cells/cm2 on matrigel (BD) coated dishes in MEF conditioned hESCs media (CM) spiked with 10 ng/mL of FGF-2 and ROCK-inhibitor. The ROCK inhibitor was withdrawn, and hESCs were allowed to expand in CM for 3 days or until they were nearly confluent. The initial differentiation media conditions included knock out serum replacement (KSR) media with […] TGF-b inhibitor (SB431542, Tocris) and 500 ng/mL of Noggin (R&D). Upon day 5 of differentiation, increasing amounts of N2 media (25%, 50%, 75%) was added to the KSR media every two days while maintaining 500 ng/mL of Noggin and TGF-b inhibitor. For FP induction, Sonic C25II was added at 200 ng/ml.
hESC derived neural cells at the rosette stage were differentiated into both CNS and PNS progeny and patterned towards multiple cells fates along the A/P and D/V axis (Elkabetz et al., 2008). […] Specification of progenitor cells into FP tissue and cells during mouse development was thought to depend on SHH signaling within early neural lineages. The inventors tested whether rosette-stage neural cells were competent to undergo FP specification in response to SHH. High concentrations of SHH were needed to induce FP during mouse development (Roelink et al., 1994; Ericson et al., 1996). Recombinant N-terminal SHH has a limited activity range due to the lack of posttranslational modifications required for full SHH action. Recently, a modified version of recombinant SHH became available where SHH was tethered to two Isoleucines (Sonic C25II, R&D Systems), mimicking more closely the potency of mammalian SHH protein.
The majority of cells retained rosette cytoarchitecture and staining for the AN marker BF1 as described previously (FIG. 1A) (Elkabetz et al., 2008).
Based on the hypothesis that FP specification in the mouse occurs at early developmental stages, at the time of or prior to neural induction, the inventors repeated SHH induction studies at Day 9, the time of rosette specification, using classic stromal-feeder mediated neural induction protocols (Elkabetz et al., 2008). Under this paradigm the inventors noticed a drastic change in cell morphology restricted to the cells treated with SHH-C25II (FIG. 1B).

[2] = test system: hESCs; assay: Floor plate induction in NSB protocol, FOXA2 immunostaining; settings: added early along FP differentiation; BIO 100 nM
Method: as §1
Tissue was fixed using 4% paraformaldehyde and Picric acid for 15 minutes, washed with PBS, permeablized using 0.3% Triton X in PBS, and blocked using 10% Donkey Serum. Primary antibodies used for microscopy included PAX6 (Covance), TUJ1 (Covance), ZO1 (Zymed), BF1 (FOXG1, gift E.Lai), TH (Pelfreez), NKX6.1 (DSHB) and FOXA2 (SantaCruz).
Using this protocol, in combination with compositions and methods of the present inventions, the inventors aimed to optimize FP differentiation by adding Sonic C25II at different time points during neural induction and assaying for FOXA2 expression. Differentiation was initiated upon NSB exposure, and Sonic C25II was added at Day 1, Day 3, Day 5, or Day 7 (FIG. 2A).

[3] = test system: hESC; assay: Real-Time PCR of pluripotency and germ layer markers in treated hESC
Method: Cells and Culture Conditions (dual SMAD and floor plate). hESCs (WA-09; passages 35-45) were cultured on mouse embryonic fibroblasts plated at 12-15,000 cells/cm2 (MEFs, Global Stem). A medium of DMEM/F12, 20% knockout serum replacement (GIBCO), 0.1 mM b-mercaptoethanol, 6 ng/mL FGF-2 was changed daily. Cells were passaged using 6 U/mL of dispase in hESCs media, washed and re-plated at a dilution of 1:5 to 1:10. Neural Induction (Dual SMAD). hESC cultures were disaggregated using accutase for 20 minutes, washed using hESC media and pre-plated on gelatin for 1 hour at 37° C. in the presence of ROCK inhibitor to remove MEFs. The nonadherent hESC were washed and plated on matrigel at a density of 10,000-25,000 cells/cm^2 on matrigel (BD) coated dishes in MEF conditioned hESC media (CM) spiked with 10 ng/mL of FGF-2 and ROCK-inhibitor. […] The ROCK inhibitor was withdrawn, and hESC were allowed to expand in CM for 3 days or until they were nearly confluent. The initial differentiation media conditions included knock out serum replacement (KSR) media with […] TGF-beta inhibitor (SB431542, Tocris) and 500 ng/mL of Noggin (R&D). Upon day 5 of differentiation, the TGF-b inhibitor was withdrawn and increasing amounts of N2 media (25%, 50%, 75%) was added to the KSR media every two days while maintaining 500 ng/mL of Noggin. For MS5 induction, established methods previously reported were used^18. Quantitative Real-Time (Dual SMAD). Total RNA was extracted using an RNeasy kit (Qiagen). For each sample, 1 ug of total RNA was treated for DNA contamination and reverse transcribed using the Quantitect RT kit (Qiagen). Amplified material was detected using Quantitect SYBR green probes and PCR kit (Qiagen) on a Mastercycler RealPlex2 (Eppendorf). Results were normalized to a HPRT control and are from 4-6 technical replicates of 2-3 independent biological samples at each data point. Neuronal Patterning and Differentiation (Dual SMAD). Dopaminergic patterning was initiated using BDNF, ascorbic acid, sonic hedgehog, and FGF8 in N2 media as previously reported^18, and maturation was performed in the presence of BDNF, ascorbic acid, GDNF, TGFb-1, and cyclic-AMP. Motor neuron patterning was performed using BDNF, ascorbic acid, sonic hedgehog, and retinoic acid in N2 media as previously reported^16. Microscopy, Antibodies, and Flow Cytometry (Dual SMAD). Tissue was fixed using 4% paraformaldehyde for 20 minutes, washed with PBS, permeablized using 0.5% Triton X in PBS, and blocked using 1% BSA in PBS. Primary antibodies used for microscopy included PAX6 (Covance), Oct4 (Biovision), AP2 (Novus Biologicals), GBX2 (Sigma), HNK1 (Sigma), HOXB4 (Developmental Studies Hybridoma Bank (DSHB)), Nestin (R&D), NKX6.1 (DSHB), OTX2 (gift), p75 (Advanced Target Systems.), PAX7 (DSHB), PLZF (Calbiochem), TUJ1 (Covance), ZO1 (Zymed), BF1 (FOXG1, gift Esseng Lai), TH (Sigma), HB9 (DSHB), ISL1 (DSHB). CD105-PE (eBioscience) was used for excluding MS5 stromal cells for flow cytometery on a FACS can (BD). Floor Plate: Neural Induction.

[4] = test system: hESCs; assay: qRT-PCR of FP, AN and regional markers during FP induction
Method: as §1
Total RNA was extracted using an RNeasy kit (Qiagen). For each sample, 1 ug of total RNA was treated for DNA contamination and reverse transcribed using the Superscript III (Invitrogen). Amplified material was detected using Taqman probes and PCR mix (ABI) on a Mastercycler RealPlex2 (Eppendorf). All results were normalized to a HPRT control and are from 3 technical replicates of 3 independent biological samples at each data point.
FOXA2 is a key marker of FP development. However, FOXA2 is also highly expressed in the endoderm. To further characterize the hESC derived putative FP tissue, the inventors performed qRT-PCR analyses for candidate markers at Day 11. […] The inventors further characterized the nature of FOXA2+ putative FP cells using a panel of neural precursor, glial, neuronal and non-neural markers (FIG. 7). […] To distinguish FOXA2 expression in hESC derived FP versus endoderm tissue, the inventors differentiated hESCs to endoderm (D'Amour et al., 2005).
To gain further insight into the factors critical for human FP specification, high resolution temporal gene expression profiles of candidate markers were performed at 6 time points during the 11 day protocol.
The inventors contemplated the use of SIX6 as a putative marker of anterior FP identity. Thus SIX6 status of the hESC derived FP was used to mark respecification in response to known caudalizing agents such as FGF8, Wnt-1, and Retinoic Acid. Each of these caudalizing factors was added in combination with SHH and the resulting tissue was assessed for expression of the FP markers FOXA2 and NETRIN-1, the AN marker BF1, and putative anterior FP marker SIX6.

[5] = test system: hESCs derived FP; assay: SHH enhancer (SBE1/SBE2) LacZ constructs in hESC derived FP
Source text: As mentioned above, studies had identified different enhancers that directed SHH expression to different A/P region along ventral axis (Jeong et al., 2008). […] In the absence of caudalizing factors (SHH C25II alone), LacZ expression was observed herein following transfection with the SBE2 but not the SBE1 enhancer supporting the hypothesis that hESC derived FP is anterior by default (FIG. 6C). In contrast SBE2 activity was abolished upon treatment with Wnt1 or FGF8 while SBE1 activity was induced under these conditions.

[6] = caudalizing factor added in combination with SHH

Row | Molecule | FP competency of neural rosette stage cells [1] | CDX2 expression [3] | SIX6 expression [4, 6] | SBE1 enhancer activity (LacZ) [5] | SBE2 enhancer activity (LacZ) [5] | other results
1 | O=C1Nc2cc(Br)ccc2/C1=C1/Nc2ccccc2/C1=N\O [BIO, reference compound] | not sufficient to induced FP competency | – | – | – | – | FOXA2 expression [2]: can increase FOXA2 expression
2 | NC(=O)c1ccc(-c2nc(-c3ccc4c(c3)OCO4)c(-c3ccccn3)[nH]2)cc1 [SB431542, 4-[4-(1,3-benzodioxol-5-yl)-5-(2-pyridinyl)-1H-imidazol-2-yl]-benzamide] | – | dramatic increase | – | – | – | Brachyury expression (mesodermal lineage) [3]: suppression of Brachyury; Nanog expression ([3]; hESC in KSR): rapid loss of Nanog expression; also recorded: most dramatic downregulation
3 | Noggin | – | Suppression of CDX2 | – | – | – | SOX17 expression (endodermal lineage) [3]: suppression of SOX17
4 | B1 | – | – | significant reduction in SIX6 expression | induced | abolished | –
5 | B2 | not sufficient to induced FP competency | – | significant reduction in SIX6 expression | induced | abolished | FP production based on FOXA2 and Netrin-1 expression ([4]; added in combination with SHH): significantly potentiated FP production; BF1 expression [4, 6]: dramatic reduction in BF1 expression; midbrain FP markers CORIN and NOV and DA progenitor markers LMX1B, EN1, NGN2 ([4]; qPCR): significant increase
6 | B3 | not sufficient to induced FP competency | – | – | – | – | –
